assay: protease stability score; higher = more stable; yeast display proteolysis, trypsin and chymotrypsin;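 further: relative to predicted unfolded state with 0 unfolded-like and 1 meaning tenfold more protease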

In order of rising protease stability score:
1. SEEEHRMREILDLLTESFHTGDERIHLEYADPHARFDIGDKHIHGRELFTKRWKEWLERFKNITLQLRIDDVSIIDGVFVVEGTLTIRINGVEIERDTHIFLYIVDGRVSTMKRTIH  -0.116
2. SEDERDSKIAAEINRHWLETGDEEHFKKNVDPHTKVRIGDKEYHGRHFLLHILEHHVKHLWFEVRIEDLRLIGDFVHIDMVLFIRVDGRQETFRIRIIAQKIDGRWVVKHINIE  0.097
3. DHEDELKMHLFEHLLEVLMTGDEHRKTRLLDPDARSHLDINGQKIDVMGWEEVTKLDRKLHEEIRFHEIHIREWELQGDKIFVVGETRIEINGVEFRTEVRIIVVVVNGRLKALFFHVH  0.271
4. DEEKERMFEHWEDVLRDWYTGNEDNLRHLFDPHARTDVNGVELHGMDLISEVLRRHLEEIRIKSMHLRELRSVDGRIHEHGELRGRVNGVDVRREVRVHLTVVNGRMKEMRFENI  0.394
5. SEEEEDIRKFLEDHHRAFATGDEKRLTELMDPNVRFDVNGVDRHGRELAVEMLHKQREEMGIDHLETIEMQDHEVYGDYIHLDVEVHIRVNGKRHILKRRILWLKINGRWTIKHEQLR  0.464
6. DEEYDIAEEILHLLVELILTGDEHEILRYADPNVRLIIGDKDIHGMDWVSRFNMHLRLDDMKWELKRAHVYNGVIDNRGHLVMHGEIDGRHDTIKRETRILINKVNGRWNIREILIH  0.653
7. DEDERNLREFLRRMVEHWLTGNEESLKRLIDPEVRIHIGDKDLVGREEEERYHRQMRSDRLHVELDSVDIVGDKLQLHITIHIDSIVNGRRLDIKYRHTLHVRKINGRWILEESEIK  0.814
8. DEEEEALEEVLRLLSKAILTGDEDQMRELVDPHVRVHVGDKDLIGWDRYKRHTKEMRIIIHRFELRDKRRVGNKLEFDGHMDYELIVNGRTWKHREDMFMVIVKVNGKWHIHYEQVD  0.88
9. DEEEKYIKSLAKLISHAISTGDFELFHKLVDPDVRLIVDGVDLHGWELATKWIEEIRVEDHEVRVKEVRFVDGRANSDGEVILDGEYNGREKRVERKTILVSLKVDGRWTVKSLEIK  0.882
10. SEDEKIMEEASRLFMHLFLTGDEETLMRLADPNTRIVFNGQDHHGREEWTKVLRDLGIKHSHIEHVNLRTQGDKVDLNVHVNVHIDGRTRRYLIIVHATKINGRWEIKEIQVHEH  0.989
11. NEDEEVERKWLEFIRHALHTGDERILHELLDPHAQLIYGDKHIIGREEMTRQFIELGVDHMEDKRVHHQGDKIHQDGTEHVNGKERKVRFVVAKVNGRWIWERMHVI  1.03
12. SETERKVREVLRLLDESLTTGDEREFRHLFDPNARLEIGDWEIHGMEIIDRLLHEIRIEVNDSKVRRIRIQGDKVEVHTRVDLKFNVDGVTERHDRDQHLLILKVNGRWLIKNFYIE  1.1
13. DHLHEDSKEAFHLWKELSRTGDPKEFADNVDPNVRILINGKRYHGMEHLEHLMMELGIKHSEITRIDTIGDKLHLDGHNRFNGRTVDVHILSNKINGRWVIEEVEVL  1.14
14. DEELNEWEEWMRRAMKADETGDEDTVTHMLDPNVKFDIDGVELVGREEFIRFFRELRISFHHFKFDHIRDINGRVRVEGTVHLEIIIGEFRHRDDRRTERIELKINGRWYIHSMKIG  1.18
15. DERREIMEEWARDVIEWLETGDFEAIERNLDPNVRHDFNGKEFHGREQVIKSFHDILKRIKNIRIETRHIEVVDGVTHWDGDVNVNGVRTHVDINIEVINGVFHDFYIKFK  1.19
16. DEDERFAEIAIRLMIEIIKTGDEREEDKLIDPHARLIVGDWLIHGRDELVRYLTHLRIEHLEIKTWEVVNGRVKLTTRIHLRINGRHHETDQVNIIEKVNGRWYMKLIEFK  1.19
17. SHEDELIERFYKWLIHILETGDEERWMEYADPDARLLYNGKDLIGRDEARRQMHEMRFHHMEVKSIRVVDGKVNVTGRIDGEINGRHHEHEVLLVIIKFNGKWLIKTVQFH  1.22
18. DEKSEHILELLRLMLELLVTGDWSMLRKLVDPNARMYYGDKEFHGWEDMVKFIKILLERIDHVEIRLHNSDVQGEKAKSDGTLIERVNGQEVRFDSHIINIVVNGRAKEVRIEVH  1.22
19. DEMDEISKEAWRMLKEITRTGDEDLMHKNVDPNARVIYGDKVVHGRERVTKILVEMRIDHEEHRDSRVVGNKVELDVHFDGEFDGRRFRTDVHWVIVKINGQWRIKEHVIL  1.22
20. DENRRHELEIAQILLHAWVTGDEHILRRFADPDMQFVLEFDGKTIDLHGRELVISFFRDLVDKLGVDHITLESHRVINGRTHIDTRVIFNGVDREEKIHIHIVNGRLKHLELRVH  1.22
21. DEEHRVIHNAVRILLEAIRTGDEETLRRLLDPHTRIEIGDKELHGWKDAIKFERDVWEILGIDHSEIRIKHVRIIGDKIEVEGEIINYVNGKEIVLDTNLIMRKIDGRWVFKSRKVN  1.23
22. DEDRHDVKRWLEFLVKLMETGDEEVLRTLADPNTRVDINGRDNHGWESVVTVLRELGANHIHHIEIKHLHIINGRVHIDMRVHRIQGDKTLDFDIHLHANKYNGRWHLKSVQIH  1.24
23. EEDFRLVDKFIKDFWKSFRTGDEDLFKKYLDPHVQLEVNGQEIHGREQLSRVLVELIIEFGVDHVEFRLHDWHIYDGQAEHHTHVRLKYGDKNVRRTLHIFMLKVDGRWILESMVIR  1.26
24. DEEHEINRRIAEWWLHSVKTGDEESIENNADPNTRIVVNGVHFHGMEESHKWLHEFLRRFKNATLEIHSMEVINGVTHIHGTLVQGDKRIRVHIHVHVINGRIHTISHEHR  1.27
25. DEIEEEAKEMTKRILEDIKTGDEDSIFKLMDPNVKLVVGEKIHIGRETASKFFRKHWEDLGITRVESHLRTTHLIDGRVHVHSETNWNGVRIEVIIEIEKVNGRWVIREIHIHMH  1.29
26. RDEESHLKHLAERIMKSWETGDEHTLRHLFDPNTRSHVEVGDKRWSFIGMENFDRWFRELHEEMGANHTTVHDTKIQGNKLTMDTRLLVGDKEIRTRLIFHIVDGRITHIIIKLE  1.31
27. DEEKHSAEHFMRLWIESFETGDEESIKRLMDPHAKSDFNGVEMHGREYLEVIKREMRVKSSRLHVKHIDVIDGVVIIEGRMILDGEINGVRTRLESDVRFVVEKFDGRWILRSSSIK  1.31
28. REDEEQMSRFIKEMIHLLRTGDEDRLHELIDPHTRLDFDGKEIHGREEWSQFLKEIRFRRFEVKDFEIVNGVANVDGKMHGEFDGQRFTTRVHIYNVKINGRWVHKWEEIG  1.32
29. TELEREVETFLEMWITAIHTGDWTTLIELIDPHARLDYDGREIHGMEYYVEEFIKRLQEHGARVDIKIDRIDFQGDKVRVIGQLEVIIGEKREVKDVIIYIEKVDGKWRLHHEEIV  1.37
30. TEDDENAKMIMHLLYNHMKTGDFDTLVDMVDPHARNIIDGRELVGWEHFYRWLHELGFNHNELRVRDIKHFDGKVDVDVELILNVGDKHLRIRTTFIVRKVNGRWFIESIRLK  1.38
31. DEMERIIETALELLIKSERTGDEDLYREFLDPHTIIDINGKIIHGREEFVRWFTEIRVHELKLRDMEIQGEFAIIYGEVDGRIGDKHFHTSVRLIVYKIDGRWIMRWNELN  1.42
32. DEEEEQAHTMLEIFLHNLVTGNEETINTLMDPHARTDIDGKIFHGRDWLEHFLRRFPHVRLHLKHIEWRVINGVAHLHLEMHVNVDGRHFDVRFHIHNEKINGRWFSHSFKYSIE  1.44
33. SEEHEEVERLMRIYFEERLTGDWDRWLSNVDPHTRIIIEIGDKRIELHGWKDFLRFLRFIKNITIHHVHIRHVDVQGDKAHVDEEIDVTIGDKRTKITHEMIIIVVNGRIKHVYERYI  1.44
34. DEDTHDNRHALELLLRFLETGDEDSLRELADPNARLSVNGRNQHGREDLFSTWSEMGVDHMEIKSHRIVDGRLLLHGHIKFNGRREDVHIFMVKIDGRWYIEEVKIL  1.56
35. DEETELTERAIEESKHNMETGDEDRLIELIDPNVKVEIGDKTFHGWEELMRWWHELGIKHVHLEFHDVKHFNGRIEVDGRLHIDVNGRTILLRVELYFQKINGQWFKESIHIK  1.67
36. SEREEYLEEMFHLFIHYLLTGDWELLINLMDPHARNEIHINGVIFLVHGRELVKEIWERFRKHIRIKHIHVEELRVQGDKAESHTWVHYTIDGRESRVFTRVEIRIIDGVVRRISVEIR  1.72
37. DELQHELERFLEEESRMLKTGDEKRLLELADPDVRVHIDGVDMVGWEALETMWRILKERLGADHVEDVKIRHVDLQGDKADMDVEFDMIQGDKKHYLRSRLIVTKINGRWLLRYVIIK  1.75
38. DEEEHEIRQAIELEIRLIETGDFKAMRKMADPHVRTHINIGDKRLDLHGRDFFEWWLRFVKGVTHRFEDFVSVGNKVHIIVQDQVGDKRYEVKIVFKKVDGRWRMTESEVHFE  1.83
39. SEDHEFSEHALREFIHVLMTGDERSLLKLMDPHTQLIFNGKEIHGMEEIIRIWSEHVKRFGFNHIDHVHIHHVEIQGDKIRIDGTTRGLVNGREHTHRTHLIAIKYNGKWIIHNIKID  1.9
40. SEDEEVAERFLRLLIESLMTGDEDSFKSLLDPNDRLHIGEKHNHGRNLIVELLTRFGIELEHIELKSVEVINGRIHVNTHIRFIQGDKHIETEMRLNVDKIDGRWRLRSMHID  1.98
41. REDEQLFHEMLRRVIHALLTGDEQILADLLDPRMRIMYDGVSRHGWHDFIEVLRDLGFDHLILKDYRIQGDYVRFHFIIEQGDKHHTVEIHVQIWDGKVEQIVVNYR  2.04
42. TEDERDVVKLLHLVSKLWLTGDEHILEHLADPSVRSDFDGVRLHGRRLLSYFLSELRIHHVEVRDVRVEYQGDKLIARSDTEVDLEIDGQRHRMDTRMILISRKWDGRWLIESISFEIQ  2.04
43. TELEKDVVEVLHFLTHAHKTGDEDAINRLLDPHTRIDIDGQEFIGREDALRLWHELRTTHMRIDDRRIQGDKIQVDGQVNYLVNGREEERDVTIHMVKFDGVWVLREIKID  2.07
44. SEDFHRIFHMLELIIRAWITGDEELLEKLADPHVRIDIDGVDIVGMELVSTFLHEIRFDLKQIRFKDIHVVNGRIRLHGESDVHVQIGDKEYEIRSEEEWIVTKVNGQWRLTEVRYL  2.08
45. DELEEEVMEFIRVFIHLLNTGDEDHLHELIDPNVRVEDENEEKHGRDTVEHMQRFFKNLRVTDLKVETFEVQGEFVHVHVDIEERVGDKHFHYKVLYIILKVDGRWLMHQVRFH  2.12
46. SEDDEFIRFVSEIIEHILETGDEESLIKLADPNAQFIHIINGREIRYHGRHIFIEWWRRLGIDHLKIEDVRVEQQGDKMRTDFRVILRVGDKTIDSKLHFLIRKVDGKWHVESIKVEHR  2.27
47. RHEEEVLEHWMRLYIEALLTGDEHTLHRLLDPNAKVHIDGRDVVGREEIVRWLREFWNEIRIKHLTISDLKIYGEYVHITGTLNVQVNGQTEHRRIEIDLVIIDGVFKESEVRIH  2.39
48. SERDELVEKLMESALDFWRTGNEDLMERLLDPHVRLDINGREHHGREVVIKAFREIWMLLGIDHIDIHHVDIQGEYVHLDVRVKVNGKDTRSRIELIVVDGKITELIIRLR  2.51
49. SEEEEEAQRFFEEWSKSWVTGDEDLTLHLLDPNVKVDIGDKVYHGRESYLELLHLILREARVHSFHMHRLEVIGEKANIDSRVDHEVGDKRDTVHMNMIVVKINGRWILKSIQIK  2.58
50. SEDEKLVHHAANLILEALWTGDEDTLREMVDPNVRTHINGREFHGWEESIRIILHHLNRFKNVRWHLHDQRVYGEKSHNDVRTNVDGVTLEVILILIVVDGRIRSISIEIR  2.68

— the NTF2 design screens of Basanta et al. (2020)
